According to PMC8915372:

Molecular target: HLA-A*03:01 (HLA class I molecule of HLA-A3+ NBS fibroblasts) (human | human (endogenous in NBS fibroblasts))
Experiment: affinity purification with mass spectrometry

amount of peptide detected by PRM in the HLA class I eluate (fmol/million cells): 3.67
Binder: ATFYVRTTINK [A3-RPL28^74-84(p76S>F) 11-mer peptide]
